Test: yeast display, Sf9 membrane polyspecificity reagent, FACS + sequencing; frameworks hold sequencing errors
How it was run: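 Using colony PCR, genes from sorted yeast display clones were amplified, then sequenced on MiSeq at 2 × 250 and filtered by CDR length. The clones had been stained with 10% biotinylated, detergent-solubilized Sf9 membrane reagent for 1 hour at 4 °C and sorted by FACS into low and high (top ~1%) gates on anti-HA and streptavidin fluorescence. Polyreactivity labels come from the gate of origin.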

| Sequence | polyreactivity (PSR sort gate) |
| --- | --- |
| QVQLVESGGGLVQAGGSRRLSCAASGRTFQYYAMGCYRQAPGKERELVASITYNGDITYYADSVKGRFTISRDNAKNTVYLQMNSLKPEDTAVYYCAATKFSDFGYQAVIGYGYWGQGTQVTVSS | low polyreactivity |
| QVQLVESGGGLVQAGGSRRLSCAASGRTIGVYAMGWYRQAPGKERELVAAFSWSGGTTYYADSVKGRFTISCDNAMNTVYLQLNSLKPEDNAVYYCAADSFTEVDYWGQGTQVTVSS | low polyreactivity |
| QVQLVESGGGLVQAGGSRRLSCAASGSIFTSNAMGWYRQAPGNERDLVAVITGSTGRTHYADSVKGRFTISRDNAMNTVYLQMNSLKPEDTAVYYFSAGLTFVTNFDYWGQGTHVTVSS | low polyreactivity |
| QVQLVESGGGLVQAGGSRRLSCAASGSIFVSNAMGWDRQAPGKERELVAAISGGCSTYYADSVKGRFTISRDNAKNTVYLQMNSLKPEDTAVYYCNALFDGYAQDLDYDYWGQGTQVTVSS | low polyreactivity |
| QVQLVESGGGLVQAGGSRRLSCAASGSTFAYYAMGWYRQAPGKERELVAAISWRGGSTYYADSVKGRFTISRDNAKNTVYLQMNSLKPEDTAVYYCATLSAWKASSYDYWGQGTQVTVSS | high polyreactivity |
| QVQLVESGGGLVQAGGSRRLSCAASGSTFGWYVMGWYRPAPGKDREFVAAIDNSGGDTYYADSLKGRFTISRDTAKNTVYLQMNSLKPEDTAVYYCDDEAYTRASFENDYWGQGTQVTVSS | low polyreactivity |
| QVQLVESGGGLVQAGGSRRLSCAASGSTFQYNAMGWYRQAPGKDREWVAAITGSGGSTYYADSVKGRFTISRDNSKNTVYLQMNSLKPEDTAVYYCAKRVRSFNWVLARHKYDYWGQGTQVTVSS | low polyreactivity |
| QVQLVESGGGLVQAGGSVRLSCAASGLIFGGYTMGWYRQAPGKDRELVAAIDSADSTYYADSVKGRFTISRDNAKNTVYLQMNSLKPEDTAVYYCATYWYYSGPAYSLRETGGVNYWGQGTQVTVSS | low polyreactivity |
| QVQLVESGGGLVQAGGSVRLSCAASGSTIPPKVMGWYREAPGKEREWVAAISWGGSSTYYADSVKGRFPISRDHAKNTVFVQKNCLQREETAVYYCNAEYRSPVYWWYYEYDYWGQGTQVTVSA | high polyreactivity |
| QVQLVESGGGLVQAGGSVSLSCAASGTFSPYAMGWYRQAPGKERELVADITSNTGRTYADSVKGRFTISRDNAKNTVYLKMNSLKPEDTSVYYCNTYGSGTHSSGYDYWGQGTQVTVSS | low polyreactivity |
| QVQLVESGGGLVQAGGTLGLSCAASGFIITQYAMGRYRQAPGKERELVAAISGNGGRTYYADSVKGRFTISRDNAKNTVYLQLNSLKPEDTAVYYCAVTRPGRRYPFGYDYWGQGTQVTVSS | high polyreactivity |
| QVQLVESGGGLVQAGGTLPLSCAASGFTVRSYAMGWYRQAPGEEREIVAAISRLGDSTYFADSVKGRFTISRDNAKNTVYLQMYSLITEDTAVYYCAKYGIASRFSRFDSWGQGTQVTVSS | high polyreactivity |
| QVQLVESGGGLVQAGGTLRLICADSGFTFPVYAMGWSRQAPGKERQLVAAITRSGGRTYYADSVKGRFRISRDNAKNTVYLQMNSLKPEDTAFYYCNADYPYGPGSRVRYDYWGQGTQVTVSS | high polyreactivity |
| QVQLVESGGGLVQAGGTLRLRCAASGSTFFPYAIGWYRPAPGKEWELVAAITSGGRTHYADSVKGRFTISRDNAKNTVYLQMMSLIPEDSAVYYCAAVVPRHLLTYRMDYWGQGNQVTVSS | high polyreactivity |
| QVQLVESGGGLVQAGGTLRLRCAPSGSIFWGNAIGWYRQAPGKERELVAAIDWSGGSTYYADSVKGRFTISRDNAKNTVYLLMYSLKPEDTAVYFCAASGRYDYDYWGQGTQVTVSS | low polyreactivity |
| QVQLVESGGGLVQAGGTLRLSCAASGFIFCTYAMGWSRQAPGKERELVAAISSRDVSTYYADSVKGRFTISRDNAKNTVYLQMNSLKPEDTAVYYCAAEDPYYYPYEYWGQGTQVTVSS | high polyreactivity |
| QVQLVESGGGLVQAGGTLRLSCAASGFIFTGYTMGWYRQAPGKERELVARISSGDSTKYADSVKGRFTISRDNAKNTVYLQMNSLKPEDTAVYYCNKRHGTYGSVYYSREGYWGQGTQVTVSS | high polyreactivity |
| QVQLVESGGGLVQAGGTLRLSCAASGFNFASYAMGWYRQAPGKERELVDAITSDGSTNYADSVKGRFTISRDNAKNTVYLQMNSLKPEDTAVYYCAADPAKKYDQNTEYEYWGQGTQVTLSS | low polyreactivity |
| QVQLVESGGGLVQAGGTLRLSCAASGGIFLYYAMGWYRQAPGKERELVATISSGGSTKYADSVKGRFTISRDNAMNTVYLQMNSLKPEDTAVYYCNKVFPNLYIYVVRGLIEMDYWGQGTQVTVSS | low polyreactivity |
| QVQLVESGGGLVQAGGTLRLSCAASGITFVQYAMGWYRQAPGKETELVASITRRGGSTYYADSVKGRFTISRDNAKNTVYLQMNSLKQEDTAVYYCAARWSAWRGYIFDYWGQGTQVTVSS | high polyreactivity |
| QVQLVESGGGLVQAGGTLRLSCAASGITFWYYARGWYRPAPGKERELVAVISYSGGIKSYADSVKGRFTISRENAKNTVNLQMNSMKPEDTAVFYCYTLYGRFKAKVYKYGSWGQGTQVTVSS | high polyreactivity |
| QVQLVESGGGLVQAGGTLRLSCAASGLIFDANAMGWYRQAPGTERELVAAITGSGGRTYYADSVKGRFTISRDIAKHTVYLQMNSLKPEDTAVYYCAASSKRKYLYNYWGQGTQVTVSS | high polyreactivity |

| Sequence | polyreactivity (PSR sort gate) |
| --- | --- |
| QVQLVESGGGLVQAGGTLRLSCAASGPILSRNAMAWYRQAPGKERELVAAISRSGGSTYYADSVKGRFTISRDNAKNTVYFQMNSLKPEDTAVYYSATRYMGRLDYWGQGTQVTVSS | high polyreactivity |
| QVQLVESGGGLVQAGGTLRLSCAASGRIFSDYAMGWYRQAPGKEREFVAAISSSGGRTYYADSVKGRFTISRDNAKNTVYLQMNSLKPEDTAVYYCNRYNGYYNTGRYGYLGQGTQVTVSS | high polyreactivity |
| QVQLVESGGGLVQAGGTLRLSCAASGRTFKKYTMGWYRQAPGKERELVAVITSGGSTYYADSVKGRFTISRDNAKNTVYLQMNSLKPEDTAVYYCAVKYPELRTWGYYYWGQGTQVTVSS | high polyreactivity |
| QVQLVESGGGLVQAGGTLRLSCAASGRTFPSNAMGWYRQAPGKEREFVASITYSGGRTYYADSVKGRFTISRDNAKNTVYLQMNSLKPEDTAVFYCATARYRYHYYSWGQGTQVTVSS | high polyreactivity |
| QVQLVESGGGLVQAGGTLRLSCAASGRTFRNNAMGWYRQAPGKEWELVAAISLRGGSTYYADSVKGRFTISRDNAKNTVYLLMNSLKPEDTAVYYCATRSRGWIAPPWQGSDGYYYWGQGTQVTVSS | low polyreactivity |
| QVQLVESGGGLVQAGGTLRLSCAASGRTFTSYTMGWYRQAPGKERELVATISFGGGRTYADSVKGRFTISRDNAKNTVYLQMNSLKTEDTAVYYCNAGYYWRLHWWYYYWGQGTQVTVSS | high polyreactivity |
| QVQLVESGGGLVQAGGTLRLSCAASGRTFTYYAMGWSRQAPGKEREIVSAISSTGTSTYYADSVKGRFTISRDNAKNTVYLQMNSLKPEDTAVYYCNARVATYRLHSKFYYWGQGTQVTVSS | high polyreactivity |
| QVQLVESGGGLVQAGGTLRLSCAASGRTLGANALGWYRQAPGKERELVAAITQSGSSTYYADSVKGRFTISRDNAKNTVYLQMNSLKPEDTAVYYCAAEWNVVLAGAVYFRYNYWGQGTQVNVSS | low polyreactivity |
| QVQLVESGGGLVQAGGTLRLSCAASGRTYYPNTMGWYRQAPGKERELVATITRSGGNTYADSVKGRFTISRDNAKNTVYFQMTSLKPEDTAVYYCAARNGRIAWMNYWGQGTQVTVSS | low polyreactivity |
| QVQLVESGGGLVQAGGTLRLSCAASGSIFGRNTMGWYRQAPGKERELVAAINSGGGTYYADSVKGRFTISRDNAKNTVYLQMNSLKPEDTAVYYCAKASRAVRHGDYWGQRTQVTVSS | low polyreactivity |
| QVQLVESGGGLVQAGGTLRLSCAASGSIFIPYAMGWYRQEPGKERELVAAISGSGTSTNYADSVKGRFTISRDNAKITVYFQMISLKPEDTAVYYCAKGYSNFYRSDYWGQGTQVTVSS | high polyreactivity |
| QVQLVESGGGLVQAGGTLRLSCAASGSIFPDNTMGWYRQAPGKERELVAAIDGRGVTTYYADSVKGRFTISRDNAKNTVYLHMNSLKPEDTAVYYCAAQPWLRYYYWGQGTQVTVSS | low polyreactivity |
| QVQLVESGGGLVQAGGTLRLSCAASGSILQYNAMGWYRQATVKVSELVAAISRTGGSTYYADSVKGRFTISRDIAMNNLYLQMNSLKPEDTAVYYCNVYLGILYKYDYWGQGNQVTVSS | low polyreactivity |
| QVQLVESGGGLVQAGGTLRLSCAASGSMFDGNAMGWYRQAPGKERELVAAISRRGGSTYYADSVKGRFTISRDNAKNTVYLQKNSLKPEDTAVYYCNAYLSYFDGNYWGEGTQVTVSS | high polyreactivity |
| QVQLVESGGGLVQAGGTLRLSCAASGSTFELNVMGWYRQAPGKERELVAAISSGTSTNYADSVKGRFTISRDNAKYTVYLHLKSVKPVDTAVYYCAADPFTIPTSDFYYWGQVTQVTVSS | low polyreactivity |
| QVQLVESGGGLVQAGGTLRLSCAASGSTFEYYAMGSYRQAPGKEREFVAAISSGPSTTYADSVKGRFTISRDNSKNTVYLQMNSLKPEDTAVYYCARRDGTTQALFGYDYWGQGTQVTVSS | low polyreactivity |
| QVQLVESGGGLVQAGGTLRLSCAASGSTFFVYAMAWYRQEPGKERELVAAISSRGSTYYADSVKGRFTISRDNAKNTVFLQMISLKPEDSAVYFCAAEYTVSYLRMDYWGQGTQVTVSS | low polyreactivity |
| QVQLVESGGGLVQAGGTLRLSCAATGITFDAYVMGWYRQAPGKERELVAGIYSGGSTYYADSVKGRFTISRDNAKNTVYLQMNSLKPEDTAVYYWARENYRFADEPPVSRQIPYDYWGQGTQVTVSS | low polyreactivity |
| QVQLVESGGGLVQAGGTLRLSCAATGSTFPYNAMGWYRQAPGKERELVAAINSAGGTNYADSVKGRFTISRDNAKNTVYLQMNSLKPEDTAVYYCAADGSGYYDWYYYWGQGTQVTVSS | low polyreactivity |
| QVQLVESGGGLVQAGGTLRLSCSASGRTFYSYAMGWYRQAPGKERELVAAISYTGASTFYADSVKGRFTISRDNAKNTVYLQMNSLIPEDTAVYYCAAESQPSYGETDEYWGQGTQVTVSS | high polyreactivity |
| QVQLVESGGGLVQAGGTLRLSGDASGSTFPANAMGWYRQAPGKERELVAAISYRGGSTYYADSVKGRFTISRDNAKNTVYLQMNSLKPEDTAVYYCAATPWYRTRTYDYWGQGTQVTVSS | high polyreactivity |

Source: the nanobody polyreactivity screen of Harvey et al. (2022)
